Laboratory results: article PMC8673628
Values belong to the substance of their own block, whether it stands above or below them.

Experiments:
[1] = target: Thioredoxin reductase from Sphingomonas sp. PAMC 26621 (SpTR) (Sphingomonas sp. PAMC 26621)
[2] = target: Thioredoxin reductase from Sphingomonas sp. PAMC 26621 (SpTR) (Sphingomonas sp. PAMC 26621); experiment: SEC; Superdex 200 10/300 GL gel filtration in buffer D (50 mM sodium phosphate, pH 7.2, 100 mM NaCl); molecular weight against a protein standard mix

Substance: SpTrx F26A mutant (natural protein)
- Km of SpTR for SpTrx F26A as substrate, 4°C (DTNB reduction at 412 nm, 50 nM SpTR, 0.1-10 μM Trx) [1]: 6.8 µM
- Km of SpTR for SpTrx F26A as substrate, 30°C (DTNB reduction at 412 nm, 50 nM SpTR, 0.1-10 μM Trx) [1]: 6.41 µM

Substance: Thioredoxin reductase from Sphingomonas sp. PAMC 26621 (SpTR) (enzyme)
- stoichiometry N [2]: 2

Other lines, results leading:

- Km of SpTR for SpTrx F26W as substrate, 4°C (DTNB reduction at 412 nm, 50 nM SpTR, 0.1-10 μM Trx) [1]: 1.24 µM
- Km of SpTR for SpTrx F26W as substrate, 30°C (DTNB reduction at 412 nm, 50 nM SpTR, 0.1-10 μM Trx) [1]: 0.66 µM
Substance: SpTrx F26W mutant (natural protein)

- Km of SpTR for SpTrx F26Y as substrate, 4°C (DTNB reduction at 412 nm, 50 nM SpTR, 0.1-10 μM Trx) [1]: 1.17 µM
- Km of SpTR for SpTrx F26Y as substrate, 30°C (DTNB reduction at 412 nm, 50 nM SpTR, 0.1-10 μM Trx) [1]: 0.6 µM
Substance: SpTrx F26Y mutant (natural protein)

- Km of SpTR for SpTrx as substrate, 4°C (DTNB reduction at 412 nm, 50 nM SpTR, 0.1-10 μM Trx) [1]: 1.1 µM
- Km of SpTR for SpTrx as substrate, 30°C (DTNB reduction at 412 nm, 50 nM SpTR, 0.1-10 μM Trx) [1]: 0.63 µM
Substance: Thioredoxin from the psychrophilic Arctic bacterium Sphingomonas sp. PAMC 26621 (SpTrx), wild type (natural protein)
